{"source": "paper PMC12008772", "about": "“Transcription Factor SsNdt80b Maintains Optimal Expression of SsSNF1 to Modulate Growth and Pathogenicity in Sclerotinia sclerotiorum”", "binders": {"B1": {"name": "P-SsSNF1 biotin probe (dsDNA)", "DNA 1": "TGAAGAGCAGCTGGAACCACAAATCAACTTTTCCTTTAA", "DNA 2": "TTTAAAGGAAAAGTTGATTTGTGGTTCCAGCTGCTCTTCA"}}, "molecular_target": "T1, SsNdt80b-His (Sclerotinia sclerotiorum, UniProt A0A1D9PYE1 1-599)", "T1 sequence": "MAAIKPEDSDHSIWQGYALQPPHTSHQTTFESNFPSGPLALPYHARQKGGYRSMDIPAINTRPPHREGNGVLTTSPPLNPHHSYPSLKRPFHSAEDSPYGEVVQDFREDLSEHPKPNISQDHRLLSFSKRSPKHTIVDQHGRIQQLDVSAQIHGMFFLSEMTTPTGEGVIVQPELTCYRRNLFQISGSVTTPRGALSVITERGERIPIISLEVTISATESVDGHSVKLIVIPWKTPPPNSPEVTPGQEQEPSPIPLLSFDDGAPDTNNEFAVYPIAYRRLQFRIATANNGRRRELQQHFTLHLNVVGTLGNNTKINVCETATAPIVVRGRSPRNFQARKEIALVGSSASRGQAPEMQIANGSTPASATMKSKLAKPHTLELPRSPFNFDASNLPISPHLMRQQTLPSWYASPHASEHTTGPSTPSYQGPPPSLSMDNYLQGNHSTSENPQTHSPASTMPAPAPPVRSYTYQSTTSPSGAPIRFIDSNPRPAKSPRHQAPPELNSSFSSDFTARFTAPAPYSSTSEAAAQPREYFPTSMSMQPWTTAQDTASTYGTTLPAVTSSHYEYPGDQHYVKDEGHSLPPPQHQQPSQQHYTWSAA", "test": "EMSA; LightShift Chemiluminescence EMSA Kit binding buffer (composition not given); protein 5 min on ice, then probe 30 min at room temperature; 6% native PAGE", "details": "protein: recombinant; tags: His; label: 5'-biotin on strand 1; printed biotin strand is 39 nt, reverse strand 40 nt: 1 nt 5' overhang (T) on strand 2; unlabelled forward oligo S65 is 40 nt and blunt with S64", "data": [{"binder": "B1", "values": [{"measurement": "binding result", "result": "binds"}]}]}
